# Substitutions are numbered along the chain they refer to.
# T1: cyno MerTK-his protein (cynomolgus, UniProt A0A2K5V1H9 27-505)
# T1 construct: also called cyno MerTK protein; Cynomolgus
# T1 sequence: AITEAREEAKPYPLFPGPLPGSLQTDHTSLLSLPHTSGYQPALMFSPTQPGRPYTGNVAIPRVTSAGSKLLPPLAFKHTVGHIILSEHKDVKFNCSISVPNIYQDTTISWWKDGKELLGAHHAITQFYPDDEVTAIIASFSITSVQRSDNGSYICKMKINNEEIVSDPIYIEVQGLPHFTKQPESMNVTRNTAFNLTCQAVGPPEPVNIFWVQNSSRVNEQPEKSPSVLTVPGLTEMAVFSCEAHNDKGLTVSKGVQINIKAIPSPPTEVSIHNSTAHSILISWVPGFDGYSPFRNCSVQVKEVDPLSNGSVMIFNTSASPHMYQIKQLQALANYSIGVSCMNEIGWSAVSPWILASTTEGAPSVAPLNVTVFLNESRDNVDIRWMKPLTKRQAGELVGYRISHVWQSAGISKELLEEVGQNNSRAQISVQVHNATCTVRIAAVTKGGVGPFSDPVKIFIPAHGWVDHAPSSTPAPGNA
# T2: human MerTK-his protein (human, UniProt Q12866 21-505)
# T2 construct: extracellular domain; also called hMerTK-His; human MerTK protein
# T2 sequence (looked up): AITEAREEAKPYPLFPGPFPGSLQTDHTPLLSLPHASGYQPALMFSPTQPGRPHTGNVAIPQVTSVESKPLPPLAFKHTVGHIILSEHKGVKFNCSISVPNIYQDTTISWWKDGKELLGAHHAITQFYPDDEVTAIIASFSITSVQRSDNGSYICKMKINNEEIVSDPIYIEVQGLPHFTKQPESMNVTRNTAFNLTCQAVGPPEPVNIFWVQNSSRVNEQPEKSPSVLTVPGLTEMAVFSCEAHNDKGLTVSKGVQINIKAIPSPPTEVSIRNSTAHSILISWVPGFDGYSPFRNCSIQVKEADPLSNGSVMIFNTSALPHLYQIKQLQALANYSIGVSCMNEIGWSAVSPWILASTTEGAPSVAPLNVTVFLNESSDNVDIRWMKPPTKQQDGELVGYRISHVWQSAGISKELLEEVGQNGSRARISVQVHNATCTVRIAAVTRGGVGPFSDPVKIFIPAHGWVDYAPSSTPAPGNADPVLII
# T3: human MerTK expressed on cells (human, UniProt Q12866 21-999)
# T3 construct: whole, on cells; also called CHO-K1-hMerTK; CHO-K1-MerTK
# T3 sequence (looked up): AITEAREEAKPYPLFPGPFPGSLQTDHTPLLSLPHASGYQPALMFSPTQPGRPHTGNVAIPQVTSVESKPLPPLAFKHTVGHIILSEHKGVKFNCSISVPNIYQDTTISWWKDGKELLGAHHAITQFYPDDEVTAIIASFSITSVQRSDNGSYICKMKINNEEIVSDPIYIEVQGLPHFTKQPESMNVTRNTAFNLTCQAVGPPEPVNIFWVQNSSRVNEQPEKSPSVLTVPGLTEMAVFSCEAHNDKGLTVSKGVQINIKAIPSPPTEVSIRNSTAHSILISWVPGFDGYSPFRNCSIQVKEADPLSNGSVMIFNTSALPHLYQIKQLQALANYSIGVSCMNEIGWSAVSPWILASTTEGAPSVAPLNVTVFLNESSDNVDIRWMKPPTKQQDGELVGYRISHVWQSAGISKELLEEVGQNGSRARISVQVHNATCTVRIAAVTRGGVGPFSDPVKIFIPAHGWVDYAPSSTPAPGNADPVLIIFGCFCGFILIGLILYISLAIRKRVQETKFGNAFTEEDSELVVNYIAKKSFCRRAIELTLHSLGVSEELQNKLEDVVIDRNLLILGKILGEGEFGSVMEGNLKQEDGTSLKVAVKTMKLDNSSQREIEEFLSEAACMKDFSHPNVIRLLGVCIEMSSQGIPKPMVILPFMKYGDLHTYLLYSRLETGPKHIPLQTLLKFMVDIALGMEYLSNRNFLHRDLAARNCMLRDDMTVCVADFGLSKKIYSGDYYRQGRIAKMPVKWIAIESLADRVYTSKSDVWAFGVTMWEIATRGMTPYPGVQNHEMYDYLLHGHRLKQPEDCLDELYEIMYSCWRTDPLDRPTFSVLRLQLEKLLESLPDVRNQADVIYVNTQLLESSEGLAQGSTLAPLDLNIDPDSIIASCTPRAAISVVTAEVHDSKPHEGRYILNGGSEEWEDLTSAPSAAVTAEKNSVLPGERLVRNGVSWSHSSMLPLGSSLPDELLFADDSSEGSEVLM
# B1: 247E5A8 chimeric monoclonal antibody (antibody, V domains shown)
# VH: DVQLQESGPGLVKPSQSLSLTCSVTGYSITGGYYWTWIRQFPGNKLEWMGYISYDGDNNYNPSLKNRISITRDTSKNQFFLNLNSVTTEDTATYYCAREGGRLRTMDYWGQGTSVTVSS
# VL: QIVLTQSPAIMSASPGEKVTITCRASSSVNYMHWFQQKPGTSPKLWIYTTSNLASGVPARFSGSGSGTSYSLTISRMEAEDAATYYCQQRSSYPFTFGSGTKLEIK
# B2: 252H9D5 chimeric monoclonal antibody (antibody, V domains shown)
# VH: QVTLRESGPGILQPSQTLSLTCSFSGFSLNTFGMGVGWIRQSSGKGLKWLAHIWWDDDKFYNPALKSRLTISKDTSKNQVFLKIANVDTTDTATYYCARIEGGLPYYYDYWGQGTPLIVSS
# VL: DIVMTQSQKIMSTSVGDRISVTCKASQIVGTNVVWYQQKPGQSPKALIYSTSYRYSGVPDRFTGSRSGTDFTLTISNVQSEDLANYFCQQYNSYPFTFGSGTKLEIK
# B3: 254B4D9 chimeric monoclonal antibody (antibody, V domains shown)
# VH: QIQLVQSGPELKKPGETVKISCKASGYTFTAYGMSWVKQAPGKGLQWMGWINTYSGVPTYTDDFKGRFAFSLEASASTAFLQINNLKNEDTSTYFCARRAAVVAKYWYFDVWGTGTTVTVSS
# VL: DIQMTQSPSSLFASLGGKVIITCKSSQDINKRISWYQHKPGKGPRLLIHSTSSLQPGIPLRFSGSGSGRDYSFSISNLEPEDIATYFCLQYDNLLTFGAGTKLELK
# B4: 252C12B10 chimeric monoclonal antibody (antibody, V domains shown)
# VH: QVQLQQPGTELVKPGASVKLSCKTSGYTFTSYWMHWMKQRPGQGLEWLGHINPSTGGSNYNEKFKSKATLTVDKSSNTAYMQLSSLTSEDSAVYYCARPRGFYGYSYWYFDVWGSGTTVTVSS
# VL: DIQMTQTTSSLSASLGDRVTISCSASQDINNYLNWYQHKPDGTIKVLIYFTSSLHSGVPSRFSGSGSGTEYSLTISNLEPEDIATYYCQQYSKLPPTFGSGTKLEIK
# B5: 276C2D1 chimeric monoclonal antibody (antibody, V domains shown)
# VH: QVQLQQSGPELVKPGASVKLSCKASGYTFTSYDINWVKQRPGLGLEWIGWIYPRDGYTKYNEKFKGKATLAVDTSSSTAYMELHSLTSEDSAVYFCARGYYSNLYYFDYWGQGTTLTVSS
# VL: EVVLTQSPPTMAASPGEKITITCSASSSISSNYLHWYQQKPGFSPKLLIYRTSNLASGVPARFSGSGSGTSYSLTIGTMEAEDVATYYCQQGRSIPLTFGAGTKLELK
# B6: 293C2B7 chimeric monoclonal antibody (antibody, V domains shown)
# VH: B5 VH with L43Q, N61K, A71T, Y100F
# VL: B5 VL with V2I, P9T, A13T, A61D
# B7: 265F11B5 chimeric monoclonal antibody (antibody, V domains shown)
# VH: B5 VH with K19R, S31T, K67R, A97T, S102D
# VL: B5 VL with V2I, P9T, M11V, S28I, L34F, K40R, I95V
# B8: 10F7D9 chimeric monoclonal antibody (antibody, V domains shown)
# VH: QIQLVQSGPELKKPGETVKISCKASGYTFTNYGMNWVKQAPGKGLKWMGWINTYTGEPTYADDFKGRFAFSLETSASTAYLQINNLKNEDLATYFCATYGHYAWFAYWGQGTLVTVSA
# VL: QIVLSQSPAILSASPGEKVTMTCRASSSVSYMHWYQQKSGSSPKPWIYATSNLASGVPARFSGSGSGTSYSLTISRVEAEDAATYFCQQWGTKPLTFGAGTKLELK
# B9: 85H8D5 chimeric monoclonal antibody (antibody, V domains shown)
# VH: QIQLVQSGPELKKPGETVKISCMASGYTFTTHGVTWVKQAPGQGLQRMGWINTYSGVPTYADDFKGRFVFSLETSANTAHLQINNLKNEDTATYFCARTNNYRYFDVWGTGTTVTVSS
# VL: B8 VL with A13S, S39P, S71F, F86Y, G91N, K93D, L95P, A99G, L105I
# B10: 216G3D6 chimeric monoclonal antibody (antibody, V domains shown)
# VH: QVTLKESGPGILQPSQTLSLTCSFSGFSLSTSGMGVGWIRQPSGKGLEWLAHIWWDDDKHCNPALKSRLTISKDTSSNQVFLKIASLDTADTATYYCTQMTMTREFAYWGQGTLVTVSA
# VL: DIQMTQTISSLSASLGDRVTISCSAGQGISNYLNWYQQKPDGTVKLLIYYTSRLHSGVPSRFSGSGSGTDFSLTISNLEPEDIATYFCQQYSKFPYTFGGGTKLEIK
# B11: h13B4.v16 benchmark antibody (antibody, V domains shown)
# VH: EVQLVESGEGLVQPGGSLRLSCAASGFSLSSYAMGWVRQAPGKGLEYVGIINSYGNTYYANWAKGRFTISRDNSKNTVYLQMGSLRAEDMAVYYCARDPGVSSNLWGRGTLVTVSS
# VL: DIQMTQSPSTLSASVGDRVTITCQASQNIYSGLAWYQQKPGKAPKLLIYGASKLASGVPSRFSGSGSGTEFTLTISSLQPDDFATYYCQATYYSSNSVAFGGGTKVEIK
# Target: T1, cyno MerTK-his protein
# Experiment: ELISA, coated cyno MerTK-his
# Experimental: (§1) To evaluate the binding activity, the chimeric mAbs were subjected to ELISA test. Briefly, 96-well plates were coated with human or cyno MerTK-his protein at 2 μg/mL in PBS, 100 μL/well at 4° C. overnight, then blocked with 150 μL/well of 1% BSA. Five-fold dilutions of MerTK antibodies starting from 20 nM were added to each well and incubated for 1 hour at room temperature. The plates were washed with PBS/Tween-20 and then incubated with goat anti-human IgG Fe antibody conjugated with Horse Radish Peroxidase (HRP) for 30 minutes (mins) at room temperature. After washing, the plates were developed with TMB substrate and subsequent stop solution was added to complete the reaction. The signal from each well was read by spectrophotometer at OD 450 nm.
row,EC50,Binder
1,37 pM,B1
2,150 pM,B2
3,56 pM,B3
4,40 pM,B4
5,20 pM,B5
6,20 pM,B6
7,17 pM,B7
8,24 pM,B8
9,24 pM,B9
10,47 pM,B10

# Target: T2, human MerTK-his protein
# Experiment: ELISA, coated human MerTK-his
# Experimental: as §1
row,EC50,Binder
1,32 pM,B1
2,52 pM,B2
3,47 pM,B3
4,39 pM,B4
5,19 pM,B5
6,17 pM,B6
7,9.7 pM,B7
8,27 pM,B8
9,25 pM,B9
10,46 pM,B10

# Target: T2, human MerTK-his protein
# Experiment: SPR Biacore T200, antibody captured on Protein A chip
# Experimental: The binding affinity of the MerTK chimeric antibodies to human MerTK-his protein was tested with Biacroe™ T200 using a capture method. Briefly, the antibodies were captured with a Pro-A chip. […] The antigen was allowed to dissociate for 420-800 s. Data analysis was carried out using Biacore™ T200 evaluation software.
Kd,koff,kon,Binder
4590 pM,0.000596 s⁻¹,130000 M⁻¹ s⁻¹,B1
9850 pM,0.00287 s⁻¹,292000 M⁻¹ s⁻¹,B2
11900 pM,0.000782 s⁻¹,65500 M⁻¹ s⁻¹,B3
5330 pM,0.00103 s⁻¹,193000 M⁻¹ s⁻¹,B4
12700 pM,0.00223 s⁻¹,175000 M⁻¹ s⁻¹,B5
1220 pM,0.000232 s⁻¹,191000 M⁻¹ s⁻¹,B7
4300 pM,0.00238 s⁻¹,554000 M⁻¹ s⁻¹,B8
11400 pM,0.00664 s⁻¹,582000 M⁻¹ s⁻¹,B9
852 pM,8.97e-05 s⁻¹,105000 M⁻¹ s⁻¹,B10

# Target: T3, human MerTK expressed on cells
# Experiment: FACS on SK-MEL-5 cells expressing human MerTK, geometric mean
# Experimental: To evaluate the binding properties on MerTK expressed on cells, the chimeric monoclonal antibodies were analyzed for their binding to human melanoma cell line SK-MEL-5 expressing MerTK by FACS analysis. Briefly, SK-MEL-5 cells were firstly incubated with 5-fold serially diluted chimeric mAbs starting at 20 nM at 4° C. for 30 mins. After washing by FACS buffer, the PE conjugated anti-human IgG secondary antibody was incubated with the cell-antibody complex in the wells at 4° C. for 30 mins to detect the antibodies those bound to the cells. The MFI of PE was evaluated by QuantAnalyzer 16.
EC50,Top,Binder
120 pM,4530 Geometric Mean,B11
44 pM,6950 Geometric Mean,B5
55 pM,6960 Geometric Mean,B6
48 pM,7750 Geometric Mean,B7
